# Measured values: US20160139131A1 (BIOALLIANCE C V, published 2016)
# No end group written: not given here.
# T1: 5F1-01-2-21 (also: fused to unnamed carrier protein, order not given here)
# T1 construct: Tested as a fusion to an unnamed carrier protein; not shown: the unnamed carrier protein to which the 12-mer was fused (and any linker to it)
# T1 peptide: WPIDLMSETPIL
# T2: 5F1-01-2-18 (also: fused to unnamed carrier protein)
# T2 construct: Tested as a fusion to an unnamed carrier protein; not shown: the unnamed carrier protein to which the 12-mer was fused (and any linker to it)
# T2 peptide: WPISGKHSFWSL
# T3: 5F1-01-2-17 (also: fused to unnamed carrier protein)
# T3 construct: Tested as a fusion to an unnamed carrier protein; not shown: the unnamed carrier protein to which the 12-mer was fused (and any linker to it)
# T3 peptide: WPILDHAVSRPS
# T4: 5F1-01-2-16 (also: fused to unnamed carrier protein)
# T4 construct: Tested as a fusion to an unnamed carrier protein; not shown: the unnamed carrier protein to which the 12-mer was fused (and any linker to it)
# T4 peptide: WPIDIPYAWDFS
# T5: 5F1-01-2-13 (also: fused to unnamed carrier protein)
# T5 construct: Tested as a fusion to an unnamed carrier protein; not shown: the unnamed carrier protein to which the 12-mer was fused (and any linker to it)
# T5 peptide: WPISPQPGARPV
# T6: 5F1-01-2-09 (also: fused to unnamed carrier protein)
# T6 construct: Tested as a fusion to an unnamed carrier protein; not shown: the unnamed carrier protein to which the 12-mer was fused (and any linker to it)
# T6 peptide: WPIAPNRYLLSS
# T7: 5F1-01-2-06 (also: fused to unnamed carrier protein)
# T7 construct: Tested as a fusion to an unnamed carrier protein; not shown: the unnamed carrier protein to which the 12-mer was fused (and any linker to it)
# T7 peptide: WPIPPEVEPFKH
# T8: 5F1-01-2-22
# T8 construct: Tested as a fusion to an unnamed carrier protein
# T8 peptide: WPITNSDSRITW
# T9: 5F1-01-2-14
# T9 construct: Tested as a fusion to an unnamed carrier protein
# T9 peptide: WPIHSAHVRYTT
# T10: 5F1-01-2-04 (also: fused to unnamed carrier protein)
# T10 construct: Tested as a fusion to an unnamed carrier protein; not shown: the unnamed carrier protein to which the 12-mer was fused (and any linker to it)
# T10 peptide: WPIANHENALSA
# T11: 5F1-01-2-23
# T11 construct: Tested as a fusion to an unnamed carrier protein
# T11 peptide: WPIPTLMELPSA
# T12: 9F9-01-03-24
# T12 construct: Tested as a fusion to an unnamed carrier protein
# T12 peptide: AETDYDPDHFTP
# T13: 9F9-01-03-18
# T13 construct: Tested as a fusion to an unnamed carrier protein
# T13 peptide: DARYSHDPAWPY
# T14: 9F9-01-03-17
# T14 construct: Tested as a fusion to an unnamed carrier protein
# T14 peptide: AGQKWDPEWPHS
# T15: 9F9-01-03-21
# T15 construct: Tested as a fusion to an unnamed carrier protein
# T15 peptide: YDHHWTNPPTQK
# T16: 9F9-01-03-25
# T16 construct: Tested as a fusion to an unnamed carrier protein
# T16 peptide: EPNMDPNWASPS
# B1: monoclonal antibody 5F1 (antibody, V domains shown)
# VH: EVQLQQSGPELVKPGASVRMSCTASGYTFTSYVMHWIKQKPGQGLDWIGYINPYNGGTQYNEKFKGKATLTSDKSSSTAYMELSSLTSEDSAVYYCARRTFPYYFDYWGQGTTLTVSS
# VL: DVLMTQTPLSLPVSLGDQASISCRSSQSILHSNGNTYLEWYLQKPGQSPKLLIYKVSNRFSGVPDRFSGSGSGTDFTLKISRVEAEDLGVYYCFQGSHAPLTFGAGTKLELK
# notes: also called m5F1; m133-5F1
# Tests used:
# [1] = molecular target: CD43 expressed on the surface of COLO 205 colorectal cancer cells (human) (UniProt P16150); experiment: flow cytometry on COLO 205 cells
# [2] = molecular target: CD43 on human peripheral T cells (human) (UniProt P16150); experiment: flow cytometry on peripheral T cells
# [3] = molecular target: CD43 expressed on the surface of COLO 205 colorectal cancer cells (human) (UniProt P16150); experiment: cell-based or functional assay
# [4] = molecular target: CD43 on Jurkat cells (lymphoblastoid leukemia cell line; ATCC TIB-152) (human) (UniProt P16150); experiment: flow cytometry on Jurkat cells
# [5] = molecular target: CD43 expressed on the surface of NCI-N87 gastric cancer cells (human) (UniProt P16150); experiment: flow cytometry on NCI-N87 cells
# 5F1-01-2-21 = molecular target: T1, 5F1-01-2-21; experiment: sandwich ELISA, 5F1 coated, peptide-carrier fusion
# Description: (§1) To further confirm the tripeptide epitope that antibody 5F1 binds, Sandwich ELISA was performed. 96-well microtiter plates were coated with antibody (5F1 or control antibody 9E10) with 50 μl per well at the concentration of 1 μg/ml over night at 4° C. Plates were blocked by incubation with 0.25% of BSA in PBS (150 μl/well) for 1 hour at 37° C. Plates were then incubated with fusion proteins containing various fragments of polypeptides fused to a carrier protein for 2 hours at room temperature. After washing 4 times with PBS containing 0.05% of Tween 20, plates were then incubated with carrier protein-specific antibody at 2 μg/ml for 1.5 hours at room temperature. After incubation, plates were washed 4 times with PBST. 50 μl of 1 to 3000 diluted Goat anti-carrier protein-specific antibody conjugated with HRP was then added to each well and the plates were incubated for 1 hour at 37° C. Enzyme reaction was carried out by adding substrate of the HRP enzyme to determine the reactivity of the designated polypeptide to these to these two antibodies (5F1 and 9E10). […] Monoclonal antibody 5F1 recognized a tripeptide WPI epitope structure.
# 5F1-01-2-18 = molecular target: T2, 5F1-01-2-18; experiment: sandwich ELISA, 5F1 coated, peptide-carrier fusion
# Description: as §1
# 5F1-01-2-17 = molecular target: T3, 5F1-01-2-17; experiment: sandwich ELISA, 5F1 coated, peptide-carrier fusion
# Description: as §1
# 5F1-01-2-16 = molecular target: T4, 5F1-01-2-16; experiment: sandwich ELISA, 5F1 coated, peptide-carrier fusion
# Description: as §1
# 5F1-01-2-13 = molecular target: T5, 5F1-01-2-13; experiment: sandwich ELISA, 5F1 coated, peptide-carrier fusion
# Description: as §1
# 5F1-01-2-09 = molecular target: T6, 5F1-01-2-09; experiment: sandwich ELISA, 5F1 coated, peptide-carrier fusion
# Description: as §1
# 5F1-01-2-06 = molecular target: T7, 5F1-01-2-06; experiment: sandwich ELISA, 5F1 coated, peptide-carrier fusion
# Description: as §1
# 5F1-01-2-22 = molecular target: T8, 5F1-01-2-22; experiment: sandwich ELISA, 5F1 coated, peptide-carrier fusion
# Description: as §1
# 5F1-01-2-14 = molecular target: T9, 5F1-01-2-14; experiment: sandwich ELISA, 5F1 coated, peptide-carrier fusion
# Description: as §1
# 5F1-01-2-04 = molecular target: T10, 5F1-01-2-04; experiment: sandwich ELISA, 5F1 coated, peptide-carrier fusion
# 5F1-01-2-23 = molecular target: T11, 5F1-01-2-23; experiment: sandwich ELISA, 5F1 coated, peptide-carrier fusion
# 9F9-01-03-24 = molecular target: T12, 9F9-01-03-24; experiment: sandwich ELISA, 5F1 coated, peptide-carrier fusion
# 9F9-01-03-18 = molecular target: T13, 9F9-01-03-18; experiment: sandwich ELISA, 5F1 coated, peptide-carrier fusion
# 9F9-01-03-17 = molecular target: T14, 9F9-01-03-17; experiment: sandwich ELISA, 5F1 coated, peptide-carrier fusion
# 9F9-01-03-21 = molecular target: T15, 9F9-01-03-21; experiment: sandwich ELISA, 5F1 coated, peptide-carrier fusion
# 9F9-01-03-25 = molecular target: T16, 9F9-01-03-25; experiment: sandwich ELISA, 5F1 coated, peptide-carrier fusion
# [6] = molecular target: CD43 expressed on the surface of COLO 205 colorectal cancer cells (human) (UniProt P16150); experiment: flow cytometry on COLO 205 cells; signal of biotinylated 5F1 (1 microgram/ml, competitor) with unlabeled antibody at 200 microgram/ml
# [7] = molecular target: CD43 expressed on the surface of COLO 205 colorectal cancer cells (human) (UniProt P16150); experiment: flow cytometry on COLO 205 cells; signal of biotinylated 5F1 (1 microgram/ml, competitor) with unlabeled antibody at 7.4 microgram/ml
# [8] = molecular target: CD43 expressed on the surface of COLO 205 colorectal cancer cells (human) (UniProt P16150); experiment: flow cytometry on COLO 205 cells; signal of biotinylated 5F1 (1 microgram/ml, competitor) with unlabeled antibody at 0.03 microgram/ml
# [9] = molecular target: CD43 expressed on the surface of COLO 205 colorectal cancer cells (human) (UniProt P16150); experiment: flow cytometry on COLO 205 cells; signal of biotinylated 5F1 (1 microgram/ml, competitor) with unlabeled antibody at 0.09 microgram/ml
# [10] = molecular target: CD43 expressed on the surface of COLO 205 colorectal cancer cells (human) (UniProt P16150); experiment: flow cytometry on COLO 205 cells; signal of biotinylated 5F1 (1 microgram/ml, competitor) with unlabeled antibody at 0.82 microgram/ml
# [11] = molecular target: CD43 expressed on the surface of COLO 205 colorectal cancer cells (human) (UniProt P16150); experiment: flow cytometry on COLO 205 cells; signal of biotinylated 5F1 (1 microgram/ml, competitor) with unlabeled antibody at 2.46 microgram/ml
# [12] = molecular target: CD43 expressed on the surface of COLO 205 colorectal cancer cells (human) (UniProt P16150); experiment: flow cytometry on COLO 205 cells; signal of biotinylated 5F1 (1 microgram/ml, competitor) with unlabeled antibody at 22.2 microgram/ml
# [13] = molecular target: CD43 expressed on the surface of COLO 205 colorectal cancer cells (human) (UniProt P16150); experiment: flow cytometry on COLO 205 cells; signal of biotinylated 5F1 (1 microgram/ml, competitor) with unlabeled antibody at 66.7 microgram/ml
# [14] = molecular target: CD43 expressed on the surface of COLO 205 colorectal cancer cells (human) (UniProt P16150); experiment: flow cytometry on COLO 205 cells; signal of biotinylated 5F1 (1 microgram/ml, competitor) with unlabeled antibody at 0.273 microgram/ml
# Chain of CD43 expressed on the surface of COLO 205 colorectal cancer cells (human) (P16150 20-400): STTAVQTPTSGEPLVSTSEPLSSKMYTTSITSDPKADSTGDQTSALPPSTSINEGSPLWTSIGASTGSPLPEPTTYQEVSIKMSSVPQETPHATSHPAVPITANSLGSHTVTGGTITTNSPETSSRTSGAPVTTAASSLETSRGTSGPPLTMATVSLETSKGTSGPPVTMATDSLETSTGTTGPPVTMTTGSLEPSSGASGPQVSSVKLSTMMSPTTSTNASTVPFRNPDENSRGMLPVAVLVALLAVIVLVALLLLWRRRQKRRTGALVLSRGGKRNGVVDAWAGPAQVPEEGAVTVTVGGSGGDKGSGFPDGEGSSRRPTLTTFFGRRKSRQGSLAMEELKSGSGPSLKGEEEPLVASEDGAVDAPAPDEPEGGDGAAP
# Chain of CD43 on human peripheral T cells (human) (P16150 20-400): as above
# Chain of CD43 expressed on the surface of NCI-N87 gastric cancer cells (human) (P16150 20-400): as above
# Chain of CD43 on Jurkat cells (lymphoblastoid leukemia cell line; ATCC TIB-152) (human) (P16150 20-400): as above
molecule,measurement,setting,value
"MEM-59 (anti-CD43; Biovendor, Candler, NC) (antibody)",% of Binding,[1],> 70%
same,% of Binding,[2],> 80%
B1,% Apoptosis (annexin-V+),[3],> 40%
same,% of Binding,[4],< 10%
same,% of Binding,[5],> 80%
same,% of Binding,[1],> 80%
same,% of Binding,[2],< 10%
same,binding result,5F1-01-2-21,binds
same,binding result,5F1-01-2-18,binds
same,binding result,5F1-01-2-17,binds
same,binding result,5F1-01-2-16,binds
same,binding result,5F1-01-2-13,binds
same,binding result,5F1-01-2-09,binds
same,binding result,5F1-01-2-06,binds
same,binding result,5F1-01-2-22,binds
same,binding result,5F1-01-2-14,binds
same,binding result,5F1-01-2-04,binds
same,binding result,5F1-01-2-23,binds
same,binding result,9F9-01-03-24,no binding
same,binding result,9F9-01-03-18,no binding
same,binding result,9F9-01-03-17,no binding
same,binding result,9F9-01-03-21,no binding
same,binding result,9F9-01-03-25,no binding
same,Mean Fluorescence Intensity,[6],9.78
same,Mean Fluorescence Intensity,[7],129
same,Mean Fluorescence Intensity,[8],888
same,Mean Fluorescence Intensity,[9],825
same,Mean Fluorescence Intensity,[10],1000
same,Mean Fluorescence Intensity,[11],733
same,Mean Fluorescence Intensity,[12],21.7
same,Mean Fluorescence Intensity,[13],60.3
same,Mean Fluorescence Intensity,[14],1030
